Laboratory results from patent US20230220053A1 (published 2023).
Like-named read-outs stand apart in the source and are kept apart here.

Legend:
[1] = molecular target: T1, S1 protein of SARS-CoV-2 (recombinant, construct not stated) (SARS-CoV-2, UniProt P0DTC2 16-685); assay: ELISA, S1 coated, IgG1 titrated, anti-human Fc HRP
[2] = molecular target: T1, S1 protein of SARS-CoV-2 (recombinant, …); assay: SPR (Biacore T200), IgG captured on protein A chip, S1 injected
[3] = molecular target: T1, S1 protein of SARS-CoV-2 (recombinant, …)
[4] = molecular target: T2, S1 protein of SARS-COV (ACRO Biosciences) (SARS-COV, UniProt P59594 14-667); assay: SPR (Biacore T200), IgG captured on protein A chip, SARS-COV S1 injected
T2 construct: domain: S1

[5] = molecular target: T3, RBD of SARS-CoV-2 spike protein S1 (recombinant, construct not stated) (SARS-CoV-2, UniProt P0DTC2 328-533); assay: ELISA, RBD coated, IgG1 titrated, anti-human Fc HRP
T3 construct: also called SARS-COV-2, RBD; RBD-AF647

[6] = molecular target: T3, RBD of SARS-CoV-2 spike protein S1 …; assay: SPR (Biacore T200), IgG captured on protein A chip, RBD injected
[7] = molecular target: T4, RBD of SARS-COV (ACRO Biosciences) (SARS-COV, UniProt P59594 306-527); assay: ELISA, SARS-COV RBD (ACRO) coated, anti-human Fc HRP
T4 construct: domain: RBD; also called RBD-SARS; SARS-COV, RBD

[8] = molecular target: T4, RBD of SARS-COV (ACRO Biosciences); assay: SPR (Biacore T200), IgG captured on protein A chip, SARS-COV RBD injected
[9] = molecular target: T2, S1 protein of SARS-COV (ACRO …); assay: ELISA, SARS-COV S1 (ACRO) coated, anti-human Fc HRP
[10] = molecular target: SARS-CoV-2-RBD (328-533)-His (SARS-CoV-2, UniProt P0DTC2 328-533)
[11] = molecular target: HIS tagged S1 of SARS-CoV-2 (SARS-CoV-2, UniProt P0DTC2 16-685)
[12] = molecular target: T1, S1 protein of SARS-CoV-2 (recombinant, …); remark: listed apart in the source
[13] = molecular target: S protein of SARS-COV-2 (Sino Biologics) (SARS-CoV-2, UniProt P0DTC2 16-1213); assay: ELISA, S protein (Sino Biologics) coated, anti-human Fc HRP

B1: 2020EP54-E10 IgG1 (antibody, V domains shown)
VH: QVQLVQSGAEVRKPGSSVKVSCKASGGTFSSFAISWVRQAPGQGLEWMGGIIPIFDTATYAQNFQGRVRMTADESTNTAYMELSSLTSEDTAVYYCARSTSYYDSRGDYKVGDFDYWGQGTLVTVSS
VL: not shown
notes: also called 2020EP054-E10
Work on B1 yielded an EC50 [1] of 0.084 nM, a Kd [2] of 1.15 nM and a koff [2] of 0.000292 s⁻¹. It also gave a kon [2] of 254000 M⁻¹ s⁻¹, an IC50 [3] of 0.774 nM and a Kd [4] of 57.1 nM. The koff [4] was 0.00433 s⁻¹, the kon [4] was 75800 M⁻¹ s⁻¹ and the EC50 [5] was 0.08 nM. For the same binder, the Kd [6] was 0.131 nM, the koff [6] was 0.00032 s⁻¹ and the kon [6] was 2.43e+06 M⁻¹ s⁻¹. It also gave an EC50 [7] of 0.035 nM, a Kd [8] of 3.69 nM and a koff [8] of 0.00675 s⁻¹. For the same binder, the kon [8] was 1.83e+06 M⁻¹ s⁻¹, the EC50 [9] was 0.027 nM and the Kd [10] was 0.554 nM. It also gave a koff [10] of 0.000807 s⁻¹, a kon [10] of 1.46e+06 M⁻¹ s⁻¹ and a Kd [11] of 2.3 nM. For the same binder, the koff [11] was 0.000498 s⁻¹, the kon [11] was 217000 M⁻¹ s⁻¹ and the IC50 [12] was 2.71 nM. It also gave an EC50 [13] of 0.0846 nM.
